The text below walks through data of the nanobody polyreactivity screen of Harvey et al. (2022).

The data set in a line: yeast display, Sf9 membrane polyspecificity reagent, FACS + sequencing; frameworks hold sequencing errors. The procedure, abridged: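 Galactose induction of a Saccharomyces cerevisiae BJ5465 synthetic nanobody display library ran 36–48 hours. The cells were then stained for 1 hour at 4 °C with 10% biotinylated, detergent-solubilized Sf9 membrane reagent, pulled down on streptavidin microbeads and FACS-sorted into low and high (top ~1%) gates on expression and reagent-binding fluorescence. Labels for polyreactivity follow the gate of origin.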
As to “QVQLVESGGGLVQAGGSLRLSCAASGSTFKKNAMGWYRQAPGKERELVAAISGIGTRTSYADSVKGRFTISRDNAKNTVYLQMNSLKPEDTAVYYCAARYYGFPSTLKYDYWGQGTQVTVSS”, the “polyreactivity (PSR sort gate)” value is recorded as “high polyreactivity”. With “QVQLVESGGGLVQAGGSLRLSCAASGSTFKKNAMGWYRQAPGKERELVAAISKRGGRTYYADSVKGRFTISRDNAKNTVYLQMNSLKPEDTAVYYCNAGQQHFDEEEYDYWGQGTQVTVSS”, the “polyreactivity (PSR sort gate)” value is reported as “high polyreactivity”. Turning to “QVQLVESGGGLVQAGGSLRLSCAASGSTFKKYAIGWYRQAPGKERELVAAITWTGGSTYYADSVKGRFTISRDNAKNTVYLQMNSLKPEDTAVYYCAAYKTYAVKYYWGQGTQVTVSS”, the “polyreactivity (PSR sort gate)” value was “high polyreactivity”.

As to “QVQLVESGGGLVQAGGSLRLSCAASGSTFKKYAMGWYRLAPGKERELVAAITGSGGRTYYADSVKGRFTISRDNAKNTVDLQMNSLKPEDTAVYYCAKLNNYGYDYWGQGTQVTVSS”, the “polyreactivity (PSR sort gate)” value is recorded as “high polyreactivity”.

Take “QVQLVESGGGLVQAGGSLRLSCAASGSTFKLYVMGLYRPAPGKERELVAAIDWSGGSTYYADSVKGRFTISRDNAKNTVYLQMNSLTPEDTAVYYCAADSPNSWRMDYWGQGTQVTVSS”: the “polyreactivity (PSR sort gate)” value is given as “low polyreactivity”. In the case of “QVQLVESGGGLVQAGGSLRLSCAASGSTFKQYTMGWYRQATGKERELVAAINRGGTSTNYADSVKGRFTISRDNAKNTVYLQMNSLKPEDTAVYYCNAGYSWGRYYYWGQGTQVTVSS” it was “low polyreactivity”; in that of “QVQLVESGGGLVQAGGSLRLSCAASGSTFKRNAMGWYRQAPGKERELVAAISSSGGRTYYADSVKGRFTISRDNAKNTVYLQMNSLKPEDTAVYYCAAGIRTSAGYDYWGQGTQVTVSS”, “high polyreactivity”. With “QVQLVESGGGLVQAGGSLRLSCAASGSTFKRNAMGWYRQAPGKERELVAAISWSGGSTYYADSVKGRFTISRDNAKNTVYLQMNSLKPEDTAVYYCNADHPFPQYEGGSWGQGTQVTVSS”, the “polyreactivity (PSR sort gate)” value is reported as “low polyreactivity”. For the sequence “QVQLVESGGGLVQAGGSLRLSCAASGSTFKRNAMGWYRQAPGKERELVATITRRGGSTYADSVKGRFTISRDNAKNTVYLQMNSLKPEDTAVYYCARDGFSAGMDYWGQGTQVTVSS”, the “polyreactivity (PSR sort gate)” value is “low polyreactivity”. As to “QVQLVESGGGLVQAGGSLRLSCAASGSTFKRNAMGWYRQAPGNERELVAAITDNTSTTFYADSVKGRFTISRDNAKNTVYLQMNSLKPEDTAVYYCAADHSGGSRYDYWGQGTQVTVSS”, the “polyreactivity (PSR sort gate)” value is recorded as “low polyreactivity”. Turning to “QVQLVESGGGLVQAGGSLRLSCAASGSTFKRNARGWYRQAPGKERELVASISKRGGSTYYADSVKGRFTISRDNAKNTVYLQMNSLIPEDTAVYYCAKTWQNGDRNTIGSVYAYDYWGQGTQVTVSS”, the “polyreactivity (PSR sort gate)” value is recorded as “high polyreactivity”. In the case of “QVQLVESGGGLVQAGGSLRLSCAASGSTFKRYAMGWYRQAPGKERELVAAITSGSSTYYADSVKGRFTISRDNAKNTVYLQMNSLKPEDTAVYYCAARRAGAKYYLYGYDYWGQGTQVTVSS”, the “polyreactivity (PSR sort gate)” value was “low polyreactivity”. Regarding “QVQLVESGGGLVQAGGSLRLSCAASGSTFKRYAMGWYRQAPGKERELVASISQRGGTTYYADSVKGRFTISRDNAKNTVYLQKNSLKPEDTAVYYCAKGFGWTRTIYDYWGQGTQVTVSS”, the “polyreactivity (PSR sort gate)” value is listed as “high polyreactivity”. “QVQLVESGGGLVQAGGSLRLSCAASGSTFKSYAKGWYRQAPGKEREFVAAIRGNGARTYYADSVKGRITISRDNAKNTVYFQMNSLKPEDTAVYYCNAVRYSFSDSSVDYWGQGTQVTVSS”: the “polyreactivity (PSR sort gate)” value is recorded as “high polyreactivity”.

“QVQLVESGGGLVQAGGSLRLSCAASGSTFKSYAMGWYRQAPGKERELVAAISYRGGSTYYADSVKGRFTISRDNAKNTVYLQMNSLKPEDTAVYYCAAVKLYSYYYWGQGTQVTVSS”: the “polyreactivity (PSR sort gate)” value is reported as “high polyreactivity”. Consider “QVQLVESGGGLVQAGGSLRLSCAASGSTFKSYAMGWYRQAPGKERELVAAITHRGSTYYADSVKGRFTISRDNAKNTVDLQMNSLKPEDTAVYYCNVRRIGNGRRVDYWGQGTQVTVSS”, for which the “polyreactivity (PSR sort gate)” value was “high polyreactivity”. With “QVQLVESGGGLVQAGGSLRLSCAASGSTFKSYAMGWYRQAPGKERELVAAITRGGSTNYADSVKGRFTISRDNAKNTVYLQMNSLKPEDTAVYYCAKTYRYRTMDYWGQGTQVTVSS” the entry was “low polyreactivity”.

For “QVQLVESGGGLVQAGGSLRLSCAASGSTFKWNAMGWYRQAPGKERELVAAISKGSVNTYYADSVKGRFTISRDNAKNTVYLQMNSLKPEDTAVYYCAADRRYPALDYRGQGTQVTVSS”, the “polyreactivity (PSR sort gate)” value is “high polyreactivity”. Consider “QVQLVESGGGLVQAGGSLRLSCAASGSTFKYYAMGWYRQAPGKERELVAAISYRGGRTYYADSVKGRFTISRDNAKNTVNLQMNSLKPEDTAVYYCAAVKPYYIQYQGSAGYDYWGQGTQVTVSS”, for which the “polyreactivity (PSR sort gate)” value is “high polyreactivity”. With “QVQLVESGGGLVQAGGSLRLSCAASGSTFKYYAMGWYRQAPGKERELVASITRTGSSTYYADSVKGRFTISRDNAKNTVYLQMNSLKPEDTAVYFCNTGPHSVWWHYGYDYWGQGTQVTVSS” the entry was “high polyreactivity”; with “QVQLVESGGGLVQAGGSLRLSCAASGSTFKYYAMGWYSQAPGKERELVAAISKGATRTYYADSVKGRFTISRDTAKNTVYLQMNSLKPEDTAVYYCAADRLKFPGEYDYWGQGTQVTVSS”, “high polyreactivity”.

In the case of “QVQLVESGGGLVQAGGSLRLSCAASGSTFLDNAMGWYRQAPGKETELVAAITQSGSSTYYADSVKGRFTISRDNAKNTVYLQMNSLKPEDTAVYYCAADVPNISFDYWGQGTQVTVSS”, the “polyreactivity (PSR sort gate)” value is on record as “low polyreactivity”. “QVQLVESGGGLVQAGGSLRLSCAASGSTFLFYAMGWYRQAPGKEREFVAAITWSGGSTYYADSVKGRFTISRDNAKNTVYLQMNSLKPEDTAVYYCNGYYVPTTGREFYFAFYYWGQGTQVTVSS”: the “polyreactivity (PSR sort gate)” value is “low polyreactivity”. As for “QVQLVESGGGLVQAGGSLRLSCAASGSTFLFYTMGWYRQAPGKERELVAAINSGGSTNYADSVKGRFTISRDNAKNTVYLQMNSLKPEDTAVYYCNADRTYVYKYTYSFYYWGQGTQVTVSS”, the “polyreactivity (PSR sort gate)” value was “low polyreactivity”. With “QVQLVESGGGLVQAGGSLRLSCAASGSTFLGNVMGWYRQAPGKERELVAAITSTGGNTYYADSVKGRFTISRDNAKNSVYLQMNSLKPEDTAVYYCAKKYVWTHNYWGQGTQVTVSS” the entry was “low polyreactivity”. On to “QVQLVESGGGLVQAGGSLRLSCAASGSTFLIKAMGWYRQAPGKEREVVASIRYRGATTYADSVKGRFTISRDNAKNTVYLQLKSLKPEDTAVYYCAAVHWRYQYSLRYDYWGQGTQVTVSW”, for which the “polyreactivity (PSR sort gate)” value is on record as “high polyreactivity”. In the case of “QVQLVESGGGLVQAGGSLRLSCAASGSTFLINVLGWYRQAPGKERELVARISWRAATTYYADSVKGRFTISRDNAKNTVYLPMYSLQPEDTAVYYCADDLYKRGFDYWGQGTQVTVSS” it was “low polyreactivity”; in that of “QVQLVESGGGLVQAGGSLRLSCAASGSTFLKYAMGWYKHAPWKERELVAAITYRGGTTYYADSVKGRFTISRDNAKNSVYFQMNSLKPVDTAVYYCNARRDYDMDWGQGTLVTVSS”, “high polyreactivity”; in that of “QVQLVESGGGLVQAGGSLRLSCAASGSTFLKYAMVWYRQAPGKERELVAAITSDGTTYADSVKGRFTISRDNAKNTVYLQMNSLKPEDTAVYYCAKDYRHPTFDYWGQGTQVTVSS”, “low polyreactivity”. As for “QVQLVESGGGLVQAGGSLRLSCAASGSTFLKYDMGWYRQAPGKERELVAAISWDGGSTYYADSVKGRFTISRDNAKNTVYLQMNSLKPEDTAVYYCNADYDVYLTIWYYYGEFDYWGQGTQVTVSS”, the “polyreactivity (PSR sort gate)” value was “low polyreactivity”. In the case of “QVQLVESGGGLVQAGGSLRLSCAASGSTFLLNTMGWYRQAPGKERELVAVINSDDSTYYADSVKGRFTISRDNAKNTVYLQMNSLKPEDTAVYYCAAEPQYTRHMDSWGQGTQVTVSS” it was “low polyreactivity”; in that of “QVQLVESGGGLVQAGGSLRLSCAASGSTFLLYDMGWYRQAPGKERELVAAITWSGGSTYYADSVKGRFTISRDNAKNTVYLQMNSLKPEDTEVYYCAADSLGDRYYYWGQGTQVTVSS”, “low polyreactivity”; in that of “QVQLVESGGGLVQAGGSLRLSCAASGSTFLNNAMGWYRQAPGKERELVATITSGGITNYADSVKGRFTISRDNEKNTVYLQMNSLKPEDTAVYYCNADTWGFTYYYWGQGTQVTVSS”, “low polyreactivity”. In the case of “QVQLVESGGGLVQAGGSLRLSCAASGSTFLNYAMGWYRQAPGKERELVAAISFSGGRTYYADSVKGRFTISRDIAKNTVYLQMNSLKPEDTAVYYCGAGGWRGHYYCGQGTQVTVSS” it was “high polyreactivity”; in that of “QVQLVESGGGLVQAGGSLRLSCAASGSTFLPYAMGWYRQAPGKERELVAAIDWNGGRTYYADSVKGRFTISRDNAKNTVYLQMNSLKPEDTAVYYCAKLGRAAQGNYYWGQGTQVTVSS”, “high polyreactivity”; in that of “QVQLVESGGGLVQAGGSLRLSCAASGSTFLPYAMGWYRQAPGKERELVAAITWRTGSTYYADSVKGRFTISRDNAKNTVYLQMNSLKPEDTAVYYCNAKQRGKFDYWGQGTQVTVSS”, “low polyreactivity”. Regarding “QVQLVESGGGLVQAGGSLRLSCAASGSTFLRNAMGWYRQAPGKEWELVATISTGSGRTYYADSVKGRFTISRDNAKNTVYLQMHSLKPEDTAVYYCAASRTLRKHRYEYWGQGTQVTVSS”, the “polyreactivity (PSR sort gate)” value is “high polyreactivity”. In the case of “QVQLVESGGGLVQAGGSLRLSCAASGSTFLRNVMGWYRQAPGKERELVAAISSRGGSTHYADSVQGRFTISRDNAKHTVYLQMNSLKPEDTAVYYCNAERTAAQYVRAAYDYWGLGTQVTVSS” it was “low polyreactivity”; in that of “QVQLVESGGGLVQAGGSLRLSCAASGSTFLTNAMGWYRQAPGKERELVAAIRTSGGSTYYADSVKGRFTSSRDNAKKTVYVLMNSLKPEDTAVYYCAASYRRRRFSEYYYWGQGTQVTVAS”, “high polyreactivity”; in that of “QVQLVESGGGLVQAGGSLRLSCAASGSTFLTYAMGWYRQAPGKERELVAGISYSTGSTYYADSVKGRFTISRDNAKNTVYLQMHSLKPEDTAVYYCAADEWDGLRYYYYFNYEYWGQGTQVTVSS”, “low polyreactivity”.

As to “QVQLVESGGGLVQAGGSLRLSCAASGSTFLTYAMGWYRQAPGKERELVASISRSGSTNYADSVKGRFTISRDNAKNTVYLQLNSLKPEDTAVYYCAADHTRYSSSWYYKQYYYWGQGTQVTVSS”, the “polyreactivity (PSR sort gate)” value was “low polyreactivity”.
